Results as given in publication PMC3970802.

Target: TLND2AXH, ataxin-1 residues 410-561, recombinant protein for size exclusion chromatography
Experiment: SEC; analytical, Superdex-75 10/300 GL, 20 mM Tris-HCl pH 7, 150 mM NaCl, 1 mM TCEP; 200 ul of 150 uM protein incubated 24 h at 37 °C, each injected separately; 0.8 ml/min; dimer to monomers

TLND2AXH, ataxin-1 residues 410-561, recombinant protein for size exclusion chromatography (domain or fragment)
stoichiometry N: 2
